For two molecules, Kd, fold decrease in Kd compared to PV6 and EC50 (read off the curve) results are on record in US20180111972A1.

For experiment [1], the target named is human PDGFR on BJ-5ta human fibroblasts (human) (UniProt P09619). Put plainly: flow cytometry on BJ-5ta cells, soluble ligand titrated 5 h at 4 C, anti-FLAG-PE. In general terms: Flow cytometry measures light scatter and fluorescence of single cells or particles in a stream.
For experiment [2] the target is unchanged. Put plainly: flow cytometry on cells, soluble ligand titrated 3 h at 4 C, anti-FLAG-PE.
Experiment [3] shares this target. The experiment can be described thus: flow cytometry on cells, soluble ligand titrated.
For experiment [4] the target is unchanged. The experiment can be described thus: flow cytometry titration of the soluble FLAG-tagged protein on BJ-5ta cells, anti-FLAG detection.
For experiment [5], the target named is mouse PDGFR on NIH/3T3 mouse fibroblasts (mouse) (UniProt P05622). The experiment can be described thus: flow cytometry on cells, soluble ligand titrated 3 h at 4 C, anti-FLAG-PE.
Experiment [6] has the same target. Put plainly: flow cytometry on cells, soluble ligand titrated.

The term Kd denotes the constant that tells how readily two partners part at equilibrium. As a reminder, the EC50 (read off the curve) is the concentration at which the effect is half-maximal. A higher EC50 (read off the curve) goes with a need for much substance.

B1: PVAM-S (PV R32A), soluble, FLAG and hexahistidine tags (designed binder)
chain: DYKDDDDKIAEPAMIAECHPIETLVDILQEYPDEIGYIFKPSCVPLMRCGGCCNNRNVQCRPTEESNITMQIMRIKPHRGQHIGEMSFLQHNKCRCETVAAGSTSGSGKSSEGKGEVVKFMDVYQRSYCKTRTEVFEISRRLIDATNANFLVWPPCVEVQRCSGCCNHEGLECVPTQVQLRPVQVRKIEFVRKKPIFKKATVTLEDHLACECRPKKDHHHHHH
With B1, the Kd in experiment [1] was 5.1 pM; in experiment [2], 10.9 pM. Also, the fold decrease in Kd compared to PV6 in experiment [3] was 41 fold. The EC50 (read off the curve) in experiment [4] was found to be 6 pM.

B2: PV RF (PV K87R chain 1 and PV I182F chain 2), soluble, FLAG and hexahistidine tags (designed binder)
chain: DYKDDDDKIAEPAMIAECHPIETLVDIFQEYPDEIEYIFKPSCVPLMRCGGCCNNRNVQCRPTEESNITMQIMRIKPHQGQHIGEMSFLQHNKCRCETVAAGSTSGSGKSSEGKGEVVKFMDVYQRSYCKTRTEVFEISRRLIDRTNANFLVWPPCVEVQRCSGCCNDEGLECVPTQVQLRPVQVRKIEFVRKKPIFKKATVTLEDHLACECRPKKDHHHHHH
Take B2: the Kd in experiment [2] is 7.1 pM; in experiment [5], 0.015 nM. Besides, the fold decrease in Kd compared to PV6 came to 63 fold in experiment [3] and 22 fold in experiment [6].
